These results are taken from patent US20260209362A1 (VIB VZW, published 2026).

One may read the koff as the first-order rate constant of dissociation.

Test [1] deals with T1, biotinylated human recombinant IL-12Rβ2 (produced in-house) (human, UniProt Q99665 24-622, random biotinylated).
T1 construct: Soluble recombinant protein used for panning, ELISA and BLI; also called hIL-12RB2; hIL12RB2
T1 sequence: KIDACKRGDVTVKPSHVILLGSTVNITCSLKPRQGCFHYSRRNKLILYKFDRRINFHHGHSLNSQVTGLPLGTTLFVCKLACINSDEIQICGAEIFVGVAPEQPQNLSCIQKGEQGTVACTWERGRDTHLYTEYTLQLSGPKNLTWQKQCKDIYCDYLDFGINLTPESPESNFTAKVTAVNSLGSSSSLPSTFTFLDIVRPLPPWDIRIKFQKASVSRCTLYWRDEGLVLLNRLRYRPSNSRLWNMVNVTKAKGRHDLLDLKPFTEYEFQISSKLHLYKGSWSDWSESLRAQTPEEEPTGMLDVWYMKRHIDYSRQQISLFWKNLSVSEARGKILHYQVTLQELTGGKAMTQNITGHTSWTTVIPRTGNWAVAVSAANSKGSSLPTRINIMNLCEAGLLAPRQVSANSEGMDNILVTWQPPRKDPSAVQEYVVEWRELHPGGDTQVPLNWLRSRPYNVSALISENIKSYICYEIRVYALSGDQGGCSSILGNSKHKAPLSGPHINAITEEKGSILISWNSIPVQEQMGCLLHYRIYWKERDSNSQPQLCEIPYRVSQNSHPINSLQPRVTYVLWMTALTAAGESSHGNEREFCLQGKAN
Kind of test: ELISA, periplasmic extract on biotinylated human IL-12Rβ2; signal over streptavidin control well.

Test [2] addresses T1, biotinylated human recombinant IL-12Rβ2 …. Kind of test: BLI (Octet Red), periplasmic extract on biotinylated human IL-12Rβ2 on streptavidin tips. In general terms: In BLI a coated tip is dipped into the sample, and binding shifts an interference pattern.
Test [3] has the same target. Kind of test: BLI (Octet Red), periplasmic extract on biotinylated human IL-12Rβ2 on streptavidin tips, 1:1 model.
Test [4] has as its target T2, biotinylated mouse recombinant IL-12Rβ2 (produced in-house) (mouse, UniProt P97378 24-637, random biotinylated).
T2 construct: Soluble recombinant protein used for panning, ELISA and BLI; also called mIL-12RB2; mIL12RB2
T2 sequence: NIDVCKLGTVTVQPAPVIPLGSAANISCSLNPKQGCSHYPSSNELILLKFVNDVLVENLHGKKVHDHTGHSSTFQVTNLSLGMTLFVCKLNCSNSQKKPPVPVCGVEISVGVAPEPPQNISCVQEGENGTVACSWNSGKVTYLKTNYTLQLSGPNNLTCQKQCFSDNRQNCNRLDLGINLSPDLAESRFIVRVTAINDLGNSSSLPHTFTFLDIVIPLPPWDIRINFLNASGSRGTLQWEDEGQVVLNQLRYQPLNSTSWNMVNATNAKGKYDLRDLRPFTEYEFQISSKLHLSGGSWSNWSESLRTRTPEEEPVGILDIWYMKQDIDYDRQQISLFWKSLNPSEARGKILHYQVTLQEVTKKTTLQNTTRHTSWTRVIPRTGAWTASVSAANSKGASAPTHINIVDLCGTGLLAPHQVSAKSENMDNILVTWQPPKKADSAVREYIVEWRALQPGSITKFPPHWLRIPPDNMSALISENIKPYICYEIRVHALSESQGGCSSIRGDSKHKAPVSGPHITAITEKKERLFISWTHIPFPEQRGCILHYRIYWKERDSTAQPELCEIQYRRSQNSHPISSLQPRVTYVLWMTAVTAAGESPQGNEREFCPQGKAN
Kind of test: ELISA, periplasmic extract on biotinylated mouse IL-12Rβ2; signal over streptavidin control well. Background: In an ELISA, binding on a coated surface is turned into a signal by an enzyme label.

Test [5] concerns the target T3, human IL-12Rβ2 expressed on cells (human, UniProt Q99665 24-862).
T3 construct: the cell lines are described by plasmid or cDNA number only; also called hIL-12RB2; HEK293T transiently transfected with human IL-12Rβ2
T3 sequence: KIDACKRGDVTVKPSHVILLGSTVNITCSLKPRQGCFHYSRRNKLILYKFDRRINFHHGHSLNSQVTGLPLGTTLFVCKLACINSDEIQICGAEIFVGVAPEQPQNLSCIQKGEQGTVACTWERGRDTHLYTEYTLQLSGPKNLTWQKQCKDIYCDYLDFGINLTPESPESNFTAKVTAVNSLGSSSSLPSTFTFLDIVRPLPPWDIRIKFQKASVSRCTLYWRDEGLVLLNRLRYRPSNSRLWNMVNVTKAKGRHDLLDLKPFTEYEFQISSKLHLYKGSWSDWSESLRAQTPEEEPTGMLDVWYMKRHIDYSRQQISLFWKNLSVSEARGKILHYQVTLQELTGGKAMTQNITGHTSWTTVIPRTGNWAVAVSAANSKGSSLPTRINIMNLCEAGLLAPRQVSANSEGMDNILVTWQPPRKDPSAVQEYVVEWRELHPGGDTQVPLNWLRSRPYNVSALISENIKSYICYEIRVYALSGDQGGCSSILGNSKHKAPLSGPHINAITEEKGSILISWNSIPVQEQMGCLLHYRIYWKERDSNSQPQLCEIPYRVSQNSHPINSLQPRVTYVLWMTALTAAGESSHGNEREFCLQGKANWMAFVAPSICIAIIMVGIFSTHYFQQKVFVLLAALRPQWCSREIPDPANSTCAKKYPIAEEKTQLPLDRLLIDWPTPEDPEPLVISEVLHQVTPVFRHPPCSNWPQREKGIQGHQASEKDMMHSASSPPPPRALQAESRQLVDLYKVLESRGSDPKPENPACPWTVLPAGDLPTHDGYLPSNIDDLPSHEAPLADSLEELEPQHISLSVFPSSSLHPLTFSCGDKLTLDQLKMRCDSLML
Kind of test: flow cytometry, periplasmic extract VHH-HA on HEK293T cells transiently expressing human IL-12Rβ2. On the technique in general: A flow cytometer gives signals particle by particle.

Test [6] addresses T2, biotinylated mouse recombinant IL-12Rβ2 …. Kind of test: ELISA, periplasmic extract on biotinylated mouse IL-12Rβ2.

B1: anti-IL-12Rβ2 VHH clone 3CRH25 (clone ID 20378) (VHH)
VHH: QVQLQESGGGLVQAGDSLRLSCTASGHTFSRYTTIGWFRQAPGKDREFVAAIRWSGDITDYADAVKGRFTISRDNVKNTVYLQMNSLNPEDTAVYYCARGYSEYGVLSRNRGLYAYWGQGTQVTVSS
notes: Tested as periplasmic extract; not shown: C-terminal HA tag
With B1, in test [1], the “hIL12RB2/control (ELISA)” value is 5.16 ratio. Also, the Response in test [2] came to 0.523. Moreover, the koff in test [3] is 0.00205 s⁻¹. In addition, the “mIL12RB2/control (ELISA)” value in test [4] stood at 1.04 ratio. In test [5], the “% cells bound” value turned out to be 34.8% and the dMFI is 520. Moreover, in test [6], the binding result is recorded as “no binding”.

B2: anti-IL-12Rβ2 VHH clone 3CRHS163 (clone ID 20438) (VHH)
VHH: QVQLQESGGGLVQPGGSLRLSCTASGFAFSTYWMYWIRQSPEKGFEWVSVVNTGGDITYYADSVKGRFTISRDNAKNTLYLQMNSLKPEDTALYYCARDRTTMSYTRTYYRGGQGTQVTVSS
notes: Tested as periplasmic extract; also called 3CANS142; not shown: C-terminal HA tag
B2: the “hIL12RB2/control (ELISA)” value in test [1] amounted to 3.58 ratio. The Response in test [2] was 0.339. The koff in test [3] turned out to be 0.00302 s⁻¹. Further, the “mIL12RB2/control (ELISA)” value in test [4] was 0.93 ratio. In test [5], the “% cells bound” value came to 43.7% and the dMFI was 1050. Further, in test [6], the binding result is listed as “no binding”.

B3: anti-IL-12Rβ2 VHH clone 3CAHS171 (clone ID 20407) (VHH)
VHH: QVQLQESGGGLVQPGGSLRLTCVASGFPFSTHAMSWVRQPPGKGREWISAINSGGDSTDYADSVMGRFTISRDNAKNTVYLQMNSLKSEDTAAYYCAKYEDCSDYDCSSRASWGQGTQVTVSS
notes: as for B1
Turning to B3, the “hIL12RB2/control (ELISA)” value in test [1] was determined as 3.27 ratio. The Response in test [2] worked out at 0.195. Besides, the koff in test [3] was determined as 0.00431 s⁻¹. Further, the “mIL12RB2/control (ELISA)” value in test [4] amounted to 0.96 ratio. Besides, in test [5], the “% cells bound” value is 47.5% and the dMFI stood at 1180. Also, in test [6], the binding result was “no binding”.

B4: anti-IL-12Rβ2 VHH clone 3CAHS102 (clone ID 20399) (VHH)
VHH: QVQLQESGGGLVQPGGSLRLSCAASGSILRINLMGWYRQVPGKQRELVAEMSTGGSTTYVDSVEGRFTISRDNAKNTVYLQMNSLKPEDTAVYYCNAKAWQLGRLENDDWGQGTQVTVSS
notes: as for B1
Consider B4, for which the “hIL12RB2/control (ELISA)” value in test [1] worked out at 3.54 ratio. The Response in test [2] worked out at 0.323. For the same molecule, in test [3], the koff came out at 0.00267 s⁻¹. The “mIL12RB2/control (ELISA)” value in test [4] stood at 1.02 ratio. In test [5], the “% cells bound” value was 44.7% and the dMFI turned out to be 994. In test [6], the binding result is “no binding”.
